# From patent EP4036575A1 (Yeda Research and Development Co. Ltd, dated 2022)
# Biological target: T1, mouse recombinant His-calmodulin (mouse, UniProt P0DP26 1-149)
# T1 construct: also called His-CaM; His-tagged calmodulin
# Experiment: SPR (Biacore), His-CaM immobilised on CM5, analyte preincubated with 0.3 mM CaCl2
binder,measurement,value
KRRWKKNFIAVSAANRFKKISSSGAL,Kd,8.8 nM
